Here are results for six molecules from PMC9943670, “The homeodomain of Oct4 is a dimeric binder of methylated CpG elements”.

For series [1], the target named is T1, Brn2 POUHD (mouse, UniProt P31360).
T1 sequence: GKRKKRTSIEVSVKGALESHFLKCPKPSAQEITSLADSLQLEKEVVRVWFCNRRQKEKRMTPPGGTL
Put plainly: EMSA; 50 nM DNA; dimer with strongly reduced cooperativity; EMSA buffer composition not given; 1 h at RT; gels in 1x TG, 200 V, 4 C; probes annealed in 20 mM Tris-HCl pH 8.0, 50 mM MgCl2, 50 mM KCl; protein stock 10 mM HEPES pH 7.0, 100 mM NaCl, 10% glycerol, 0.5 mM TCEP. The note with it: protein: recombinant, tags: tag cleaved by TEV (leaves G), blunt. (In general: Mobility shift assays separate free from complexed probe on a gel.)

In series [2] the target is T2, Oct4 POU (mouse, UniProt P20263). The experiment in a line: EMSA (single-tube dual color); FAM-CpGpal with Cy5-MORE; dimerizes more effectively on CpGpal than Brn2 does; EMSA buffer composition not given; 1 h at RT; gels in 1x TG, 200 V, 4 C; probes annealed in 20 mM Tris-HCl pH 8.0, 50 mM MgCl2, 50 mM KCl; protein stock 10 mM HEPES pH 7.0, 100 mM NaCl, 10% glycerol, 0.5 mM TCEP. The note with it: protein: recombinant; Methods: TEV-cleaved tag; label: 5' Cy5 or FAM on forward strand; blunt.
T2 sequence (P20263 other isoform, or with tags, fused parts or gaps): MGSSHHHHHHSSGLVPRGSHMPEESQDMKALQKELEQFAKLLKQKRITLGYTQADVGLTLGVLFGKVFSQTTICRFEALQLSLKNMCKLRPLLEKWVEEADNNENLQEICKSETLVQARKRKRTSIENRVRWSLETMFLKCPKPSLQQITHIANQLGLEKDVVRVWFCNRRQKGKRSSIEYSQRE

In series [3] the target is T3, Oct4 POUHD (mouse, UniProt P20263). The experiment in a line: EMSA; 50 nM DNA; homodimer more efficient than full POU; EMSA buffer composition not given; 1 h at RT; gels in 1x TG, 200 V, 4 C; probes annealed in 20 mM Tris-HCl pH 8.0, 50 mM MgCl2, 50 mM KCl; protein stock 10 mM HEPES pH 7.0, 100 mM NaCl, 10% glycerol, 0.5 mM TCEP. As to conditions: protein: recombinant; tags: tag cleaved by TEV (leaves G); chain copies: 2; label: 5' Cy5 or FAM on forward strand; blunt.
T3 sequence (P20263 other isoform, or with tags, fused parts or gaps): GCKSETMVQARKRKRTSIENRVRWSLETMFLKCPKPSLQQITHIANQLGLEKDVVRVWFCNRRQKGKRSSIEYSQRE

Series [4] deals with T3, Oct4 POUHD. Put plainly: EMSA; 50 nM DNA; homodimer, minor effect of methylation; EMSA buffer composition not given; 1 h at RT; gels in 1x TG, 200 V, 4 C; probes annealed in 20 mM Tris-HCl pH 8.0, 50 mM MgCl2, 50 mM KCl; protein stock 10 mM HEPES pH 7.0, 100 mM NaCl, 10% glycerol, 0.5 mM TCEP. The note with it: protein: recombinant; tags: tag cleaved by TEV (leaves G); chain copies: 2; label: 5' Cy5 on forward strand; blunt.

Series [5] addresses T2, Oct4 POU. Put plainly: EMSA; 50 nM DNA, 25-800 nM protein; cooperative homodimer; EMSA buffer composition not given; 1 h at RT; gels in 1x TG, 200 V, 4 C; probes annealed in 20 mM Tris-HCl pH 8.0, 50 mM MgCl2, 50 mM KCl; protein stock 10 mM HEPES pH 7.0, 100 mM NaCl, 10% glycerol, 0.5 mM TCEP. As to conditions: protein: recombinant; Methods: TEV-cleaved tag; label: 5' Cy5 on forward strand; blunt.

The target in series [6] is T4, Brn2 POU (mouse, UniProt P31360).
T4 sequence: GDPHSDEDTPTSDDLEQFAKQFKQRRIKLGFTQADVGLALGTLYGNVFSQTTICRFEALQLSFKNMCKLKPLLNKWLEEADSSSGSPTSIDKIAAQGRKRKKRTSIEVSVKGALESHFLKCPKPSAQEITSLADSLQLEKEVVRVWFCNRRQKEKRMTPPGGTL
The experiment in a line: X-ray crystallography; 1.89 A; homodimer; 0.2 M MgCl2, pH 5.0; EMSA buffer composition not given; 1 h at RT; gels in 1x TG, 200 V, 4 C; probes annealed in 20 mM Tris-HCl pH 8.0, 50 mM MgCl2, 50 mM KCl; protein stock 10 mM HEPES pH 7.0, 100 mM NaCl, 10% glycerol, 0.5 mM TCEP. As to conditions: protein: recombinant; tags: tag cleaved by TEV (leaves G); blunt; self-complementary strand, 2 copies.

For series [7], the target named is T4, Brn2 POU. The experiment in a line: EMSA (single-tube dual color); Cy5-MORE with FAM-CpGpal; preferred, dimer; EMSA buffer composition not given; 1 h at RT; gels in 1x TG, 200 V, 4 C; probes annealed in 20 mM Tris-HCl pH 8.0, 50 mM MgCl2, 50 mM KCl; protein stock 10 mM HEPES pH 7.0, 100 mM NaCl, 10% glycerol, 0.5 mM TCEP. The note with it: protein: recombinant; tags: tag cleaved by TEV (leaves G); label: 5' Cy5 on one strand; blunt; self-complementary strand, 2 copies.

For series [8], the target named is T2, Oct4 POU. Put plainly: EMSA; 50 nM DNA; homodimer, 5hmC no effect; EMSA buffer composition not given; 1 h at RT; gels in 1x TG, 200 V, 4 C; probes annealed in 20 mM Tris-HCl pH 8.0, 50 mM MgCl2, 50 mM KCl; protein stock 10 mM HEPES pH 7.0, 100 mM NaCl, 10% glycerol, 0.5 mM TCEP. As to conditions: protein: recombinant; Methods: TEV-cleaved tag; label: 5' Cy5 on forward strand; blunt.

The next series has as its target T5, Brn2 POUS linker (mouse, UniProt P31360).
T5 sequence: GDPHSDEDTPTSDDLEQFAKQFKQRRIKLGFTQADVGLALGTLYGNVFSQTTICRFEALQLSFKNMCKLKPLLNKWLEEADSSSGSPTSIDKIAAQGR
Put plainly: EMSA; 50 nM DNA; EMSA buffer composition not given; 1 h at RT; gels in 1x TG, 200 V, 4 C; probes annealed in 20 mM Tris-HCl pH 8.0, 50 mM MgCl2, 50 mM KCl; protein stock 10 mM HEPES pH 7.0, 100 mM NaCl, 10% glycerol, 0.5 mM TCEP. The note with it: protein: recombinant; tags: tag cleaved by TEV (leaves G); label: 5' Cy5 on forward strand; blunt.

Series [9] has as its target T3, Oct4 POUHD. The experiment in a line: EMSA; 50 nM DNA; high affinity, homodimer also forms; EMSA buffer composition not given; 1 h at RT; gels in 1x TG, 200 V, 4 C; probes annealed in 20 mM Tris-HCl pH 8.0, 50 mM MgCl2, 50 mM KCl; protein stock 10 mM HEPES pH 7.0, 100 mM NaCl, 10% glycerol, 0.5 mM TCEP. The note with it: protein: recombinant; tags: tag cleaved by TEV (leaves G); chain copies: 2; label: 5' Cy5 on forward strand; blunt.

Series [10] concerns the target T4, Brn2 POU. Put plainly: EMSA; 1 nM DNA, 0.4-100 nM protein; nanomolar Kd, value only in figure; monomer; EMSA buffer composition not given; 1 h at RT; gels in 1x TG, 200 V, 4 C; probes annealed in 20 mM Tris-HCl pH 8.0, 50 mM MgCl2, 50 mM KCl; protein stock 10 mM HEPES pH 7.0, 100 mM NaCl, 10% glycerol, 0.5 mM TCEP. The note with it: protein: recombinant; tags: tag cleaved by TEV (leaves G); label: 5' Cy5 on forward strand; blunt.

The target of series [11] is T2, Oct4 POU. The experiment in a line: EMSA; 1 nM DNA, 1-500 nM protein; nanomolar Kd, value only in figure; monomer; EMSA buffer composition not given; 1 h at RT; gels in 1x TG, 200 V, 4 C; probes annealed in 20 mM Tris-HCl pH 8.0, 50 mM MgCl2, 50 mM KCl; protein stock 10 mM HEPES pH 7.0, 100 mM NaCl, 10% glycerol, 0.5 mM TCEP. As to conditions: protein: recombinant; Methods: TEV-cleaved tag; label: 5' Cy5 on forward strand; blunt.

Series [12] concerns the target T1, Brn2 POUHD. The experiment in a line: EMSA; 50 nM DNA; high affinity, no dimer detectable; EMSA buffer composition not given; 1 h at RT; gels in 1x TG, 200 V, 4 C; probes annealed in 20 mM Tris-HCl pH 8.0, 50 mM MgCl2, 50 mM KCl; protein stock 10 mM HEPES pH 7.0, 100 mM NaCl, 10% glycerol, 0.5 mM TCEP. The note with it: protein: recombinant; tags: tag cleaved by TEV (leaves G); label: 5' Cy5 on forward strand; blunt.

B1: CpGpal fully methylated (dsDNA)
DNA 1: GCCGCCTTATGCGCATAAGCCGCCGC
DNA 2: GCGGCGGCTTATGCGCATAAGGCGGC
modifications: 5mC at the central CpG (ATG5mCGCAT), both strands
B1: the binding result in the series with Brn2 POUHD [1] (label: 5' Cy5 or FAM on forward strand), in the series with Oct4 POU [2] and with Oct4 POUHD [3] was “binds” in each case.

B2: CpGpal unmethylated (dsDNA)
DNA 1: GCCGCCTTATGCGCATAAGCCGCCGC
DNA 2: GCGGCGGCTTATGCGCATAAGGCGGC
Regarding B2, the binding result with Oct4 POUHD [4], with Brn2 POUHD [1] (label: 5' Cy5 on forward strand) and with Oct4 POU [5] was “binds” in each case.

B3: MORE (crystal) (dsDNA)
DNA 1: TCCTCATGCATATGCATGAGGA
DNA 2: TCCTCATGCATATGCATGAGGA
In the case of B3, the binding result with Brn2 POU [6] is given as “binds”.

B4: MORE (dsDNA)
DNA 1: TCCTCATGCATATGCATGAGGA
DNA 2: TCCTCATGCATATGCATGAGGA
For the molecule B4, the binding result with Brn2 POU [7] is listed as “binds”.

B5: CpGpal 5hmC (dsDNA)
DNA 1: GCCGCCTTATGCGCATAAGCCGCCGC
DNA 2: GCGGCGGCTTATGCGCATAAGGCGGC
modifications: 5hmC at the central CpG; strands carrying the mark not given
In the case of B5, in the series with Oct4 POU [8], the binding result was “binds”.

B6: Octamer (dsDNA)
DNA 1: GGCGGCGGATGCAAATCGGCGGCGG
DNA 2: CCGCCGCCGATTTGCATCCGCCGCC
For the molecule B6, the binding result was “no binding” with Brn2 POUS linker; “binds” in the series with Oct4 POUHD [9]; “binds” with Brn2 POU [10]; “binds” with Oct4 POU [11]; “binds” in the series with Brn2 POUHD [12].
